From IntAct's records for PubMed 19542283

B1: Chemotaxis protein CheA (Escherichia coli (strain K12)), P07363-2 (parent)
chain: MQEQLDAYKQSQEPDAASFDYICQALRQLALEAKGETPSAVTRLSVVAKSEPQDEQSRSQSPRRIILSRLKAGEVDLLEEELGHLTTLTDVVKGADSLSAILPGDIAEDDITAVLCFVIEADQITFETVEVSPKISTPPVLKLAAEQAPTGRVEREKTTRSNESTSIRVAVEKVDQLINLVGELVITQSMLAQRSSELDPVNHGDLITSMGQLQRNARDLQESVMSIRMMPMEYVFSRYPRLVRDLAGKLGKQVELTLVGSSTELDKSLIERIIDPLTHLVRNSLDHGIELPEKRLAAGKNSVGNLILSAEHQGGNICIEVTDDGAGLNRERILAKAASQGLTVSENMSDDEVAMLIFAPGFSTAEQVTDVSGRGVGMDVVKRNIQKMGGHVEIQSKQGTGTTIRILLPLTLAILDGMSVRVADEVFILPLNAVMESLQPREADLHPLAGGERVLEVRGEYLPIVELWKVFNVAGAKTEATQGIVVILQSGGRRYALLVDQLIGQHQVVVKNLESNYRKVPGISAATILGDGSVALIVDVSALQAINREQRMANTAA
partner: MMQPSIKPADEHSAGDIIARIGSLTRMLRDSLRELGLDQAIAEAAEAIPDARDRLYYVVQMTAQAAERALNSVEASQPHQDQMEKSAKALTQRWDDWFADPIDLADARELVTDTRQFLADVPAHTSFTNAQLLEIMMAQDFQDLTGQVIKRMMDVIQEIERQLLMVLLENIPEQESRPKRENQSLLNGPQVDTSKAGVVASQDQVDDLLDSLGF

Variants of: B1
Conditions: with chez_ecoli cheZ

Variant | effect of a mutation on the interaction
MQEQLDAYKQSQEPDAASFDYACQALRQLALEAKGETPSAVTRLSVVAKSEPQDEQSRSQSPRRIILSRLKAGEVDLLEEELGHLTTLTDVVKGADSLSAILPGDIAEDDITAVLCFVIEADQITFETVEVSPKISTPPVLKLAAEQAPTGRVEREKTTRSNESTSIRVAVEKVDQLINLVGELVITQSMLAQRSSELDPVNHGDLITSMGQLQRNARDLQESVMSIRMMPMEYVFSRYPRLVRDLAGKLGKQVELTLVGSSTELDKSLIERIIDPLTHLVRNSLDHGIELPEKRLAAGKNSVGNLILSAEHQGGNICIEVTDDGAGLNRERILAKAASQGLTVSENMSDDEVAMLIFAPGFSTAEQVTDVSGRGVGMDVVKRNIQKMGGHVEIQSKQGTGTTIRILLPLTLAILDGMSVRVADEVFILPLNAVMESLQPREADLHPLAGGERVLEVRGEYLPIVELWKVFNVAGAKTEATQGIVVILQSGGRRYALLVDQLIGQHQVVVKNLESNYRKVPGISAATILGDGSVALIVDVSALQAINREQRMANTAA [I22A] | decreasing interaction strength
MQEQLDAYKQSQEPDAASFDYSCQALRQLALEAKGETPSAVTRLSVVAKSEPQDEQSRSQSPRRIILSRLKAGEVDLLEEELGHLTTLTDVVKGADSLSAILPGDIAEDDITAVLCFVIEADQITFETVEVSPKISTPPVLKLAAEQAPTGRVEREKTTRSNESTSIRVAVEKVDQLINLVGELVITQSMLAQRSSELDPVNHGDLITSMGQLQRNARDLQESVMSIRMMPMEYVFSRYPRLVRDLAGKLGKQVELTLVGSSTELDKSLIERIIDPLTHLVRNSLDHGIELPEKRLAAGKNSVGNLILSAEHQGGNICIEVTDDGAGLNRERILAKAASQGLTVSENMSDDEVAMLIFAPGFSTAEQVTDVSGRGVGMDVVKRNIQKMGGHVEIQSKQGTGTTIRILLPLTLAILDGMSVRVADEVFILPLNAVMESLQPREADLHPLAGGERVLEVRGEYLPIVELWKVFNVAGAKTEATQGIVVILQSGGRRYALLVDQLIGQHQVVVKNLESNYRKVPGISAATILGDGSVALIVDVSALQAINREQRMANTAA [I22S] | disrupting interaction strength
MQEQLDAYKQSQEPDAASFDYICQAARQLALEAKGETPSAVTRLSVVAKSEPQDEQSRSQSPRRIILSRLKAGEVDLLEEELGHLTTLTDVVKGADSLSAILPGDIAEDDITAVLCFVIEADQITFETVEVSPKISTPPVLKLAAEQAPTGRVEREKTTRSNESTSIRVAVEKVDQLINLVGELVITQSMLAQRSSELDPVNHGDLITSMGQLQRNARDLQESVMSIRMMPMEYVFSRYPRLVRDLAGKLGKQVELTLVGSSTELDKSLIERIIDPLTHLVRNSLDHGIELPEKRLAAGKNSVGNLILSAEHQGGNICIEVTDDGAGLNRERILAKAASQGLTVSENMSDDEVAMLIFAPGFSTAEQVTDVSGRGVGMDVVKRNIQKMGGHVEIQSKQGTGTTIRILLPLTLAILDGMSVRVADEVFILPLNAVMESLQPREADLHPLAGGERVLEVRGEYLPIVELWKVFNVAGAKTEATQGIVVILQSGGRRYALLVDQLIGQHQVVVKNLESNYRKVPGISAATILGDGSVALIVDVSALQAINREQRMANTAA [L26A] | disrupting interaction strength
MQEQLDAYKQSQEPDAASFDYICQASRQLALEAKGETPSAVTRLSVVAKSEPQDEQSRSQSPRRIILSRLKAGEVDLLEEELGHLTTLTDVVKGADSLSAILPGDIAEDDITAVLCFVIEADQITFETVEVSPKISTPPVLKLAAEQAPTGRVEREKTTRSNESTSIRVAVEKVDQLINLVGELVITQSMLAQRSSELDPVNHGDLITSMGQLQRNARDLQESVMSIRMMPMEYVFSRYPRLVRDLAGKLGKQVELTLVGSSTELDKSLIERIIDPLTHLVRNSLDHGIELPEKRLAAGKNSVGNLILSAEHQGGNICIEVTDDGAGLNRERILAKAASQGLTVSENMSDDEVAMLIFAPGFSTAEQVTDVSGRGVGMDVVKRNIQKMGGHVEIQSKQGTGTTIRILLPLTLAILDGMSVRVADEVFILPLNAVMESLQPREADLHPLAGGERVLEVRGEYLPIVELWKVFNVAGAKTEATQGIVVILQSGGRRYALLVDQLIGQHQVVVKNLESNYRKVPGISAATILGDGSVALIVDVSALQAINREQRMANTAA [L26S] | disrupting interaction strength
MQEQLDAYKQSQEPDAASFDSICQALRQLALEAKGETPSAVTRLSVVAKSEPQDEQSRSQSPRRIILSRLKAGEVDLLEEELGHLTTLTDVVKGADSLSAILPGDIAEDDITAVLCFVIEADQITFETVEVSPKISTPPVLKLAAEQAPTGRVEREKTTRSNESTSIRVAVEKVDQLINLVGELVITQSMLAQRSSELDPVNHGDLITSMGQLQRNARDLQESVMSIRMMPMEYVFSRYPRLVRDLAGKLGKQVELTLVGSSTELDKSLIERIIDPLTHLVRNSLDHGIELPEKRLAAGKNSVGNLILSAEHQGGNICIEVTDDGAGLNRERILAKAASQGLTVSENMSDDEVAMLIFAPGFSTAEQVTDVSGRGVGMDVVKRNIQKMGGHVEIQSKQGTGTTIRILLPLTLAILDGMSVRVADEVFILPLNAVMESLQPREADLHPLAGGERVLEVRGEYLPIVELWKVFNVAGAKTEATQGIVVILQSGGRRYALLVDQLIGQHQVVVKNLESNYRKVPGISAATILGDGSVALIVDVSALQAINREQRMANTAA [Y21S] | disrupting interaction strength
